In patent US20090214428A1 (HENRY M JACKSON FOUNDATION FOR THE ADVANCEMENT OF MILITARY …, published 2009):

Biological target: T1, myc-tagged NiV G (full-length, from lysates of infected cells) (Nipah virus, UniProt Q9IH62 1-602)
T1 sequence: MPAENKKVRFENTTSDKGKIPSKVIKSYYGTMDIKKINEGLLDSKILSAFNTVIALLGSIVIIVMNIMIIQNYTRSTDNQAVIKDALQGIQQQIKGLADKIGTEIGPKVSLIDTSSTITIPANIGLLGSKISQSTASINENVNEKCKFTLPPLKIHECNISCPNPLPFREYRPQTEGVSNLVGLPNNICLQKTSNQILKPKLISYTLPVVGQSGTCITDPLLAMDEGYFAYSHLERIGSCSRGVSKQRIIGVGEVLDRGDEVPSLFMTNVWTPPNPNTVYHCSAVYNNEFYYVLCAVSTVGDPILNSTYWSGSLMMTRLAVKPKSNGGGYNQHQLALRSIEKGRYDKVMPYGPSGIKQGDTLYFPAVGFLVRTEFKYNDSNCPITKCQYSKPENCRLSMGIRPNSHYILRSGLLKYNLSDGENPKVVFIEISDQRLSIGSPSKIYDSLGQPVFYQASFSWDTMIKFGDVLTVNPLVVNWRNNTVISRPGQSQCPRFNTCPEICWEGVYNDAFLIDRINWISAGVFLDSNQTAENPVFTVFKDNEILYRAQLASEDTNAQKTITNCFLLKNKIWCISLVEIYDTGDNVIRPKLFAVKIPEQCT
Assay: immunoprecipitation of 35S-labelled myc-tagged G from cell lysate

B1: Fab m102 (Fab, V domains shown)
VH: EVQLVQSGAEVKKPGSSVKVSCKSSGGTFSNYAINWVRQAPGQGLEWMGGIIPILGIANYAQKFQGRVTITTDESTSTAYMELSSLRSEDTAVYYCARGWGREQLAPHPSQYYYYYYGMDVWGQGTTVTVSS
VL: EIVLTQSPGTLSLSPGERATLSCRASQSITNGRLAWYQQKPGQAPRLLIYGVSSRASGIPERFSGSGSGTDFTLTISRLEPEDFAVYYCQQYGSSVLFGPGTKVDIKR
B1: binds.
